The target in the experiment is T1, recombinant full-length human PEX19 (human, UniProt P40855 1-299).
T1 construct: PEX19, human, full length, cloned into pETM11; also called recombinant PEX19
T1 sequence (looked up): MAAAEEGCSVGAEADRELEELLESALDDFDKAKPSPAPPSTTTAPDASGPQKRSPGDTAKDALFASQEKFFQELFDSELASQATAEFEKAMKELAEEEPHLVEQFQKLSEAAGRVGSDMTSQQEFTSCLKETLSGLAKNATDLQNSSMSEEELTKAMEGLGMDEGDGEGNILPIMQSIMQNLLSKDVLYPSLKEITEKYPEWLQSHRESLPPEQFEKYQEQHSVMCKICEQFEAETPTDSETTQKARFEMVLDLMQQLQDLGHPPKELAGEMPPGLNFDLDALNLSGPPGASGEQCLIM
Description: fluorescence polarisation; fluorescence anisotropy; FITC peptide at 6.7 nM, protein titrated (dilution series, factor 1.5); 25°C; 50 mM Tris-HCl pH 7.5, 250 mM NaCl, 0.5 mM TCEP with 0.67 mg/ml BSA, no detergent; 1:1 hyperbolic fit. As to conditions: both partners purified.

No end group written: not given here. *: point of attachment. FITC = O=C1OC2(c3ccc(O)cc3Oc3cc(O)ccc32)c2ccc(NC(=S)*)cc21

B1: FITC-labelled peptide ACBD5 WT (peptide)
peptide: {FITC}-SPGVLTFAIIWPFIAQWLVYLYYQRRRRKL
notes: TMD and tail region of ACBD5; the C-terminal asparagine residue was removed to facilitate peptide synthesis; also called ACBD5-TMD-T WT peptide; source: synthetic peptide (Genscript)
In general, Kd refers to the constant that tells how readily two partners part at equilibrium. As for B1, the Kd stood at 900 nM.

B2: FITC-labelled peptide ACBD5 MUT1 (peptide)
peptide: {FITC}-SPGVLTFAIIWPFIAQWLVYLYYQRARAKL
notes: the C-terminal asparagine was removed; also called MUT1 peptide; peptide MUT1; source: synthetic peptide (Genscript)
In the case of B2, the Kd amounted to 1900 nM.

B3: FITC-labelled peptide ACBD5 MUT2 (peptide)
peptide: {FITC}-SPGVLTFAIIWPFIAQWLVYLYYQAAAAKL
notes: the C-terminal asparagine was removed; also called MUT2 peptide; source: synthetic peptide (Genscript)
With B3, the Kd was 7700 nM.

Source of the values: PMC5450235, “Predicting the targeting of tail-anchored proteins to subcellular compartments in mammalian cells” (Journal of Cell Science, 2017).
